B1: TMEM40 (parent)
chain: YGETDFHKQDGKAGLFSQEQYERN
B2: SPSB1 (parent)
chain: DMRDPTYRPLKQELQGLDYCKPTR
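Note: lentivirally expressed fusions sorted by FACS into six bins by GFP to DsRed ratio, PSI derived from sequencing read proportions per bin multiplied by bin number.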

The first data set covers variants of B1. Description: protein stability index of a GFP-peptide fusion (GPS, HEK-293T) (PSI 1-6); higher = more stable. The conditions noted are these: c terminus: a fixed tail appended.
For YGETDFHKQDGKAGLFSQEQYERI [N24I], the protein stability index stood at 3.54.
Turning to YGETDFHKQDGKAGLFSQEQYERM [N24M], the protein stability index turned out to be 3.89.
Still for that read-out and setting: the value for YGETDFHKQDGKAGLFSQEQYERK [N24K] was 4.6.
Turning to YGETDFHKQDGKAGLFSQEQYERG [N24G], the protein stability index amounted to 4.12.
On the same count and under the same terms, the value for YGETDFHKQDGKAGLFSQEQYERD [N24D] was 4.4; that for YGETDFHKQDGKAGLFSQEQYERS [N24S] was 4.22.
For YGETDFHKQDGKAGLFSQEQYERA [N24A], the protein stability index came to 3.63.
Still for that read-out and setting: in the case of YGETDFHKQDGKAGLFSQEQYERY [N24Y] it was 3.85.
For the variant YGETDFHKQDGKAGLFSQEQYERQ [N24Q], the protein stability index worked out at 4.09.
The same measure, in the same setting: in the case of YGETDFHKQDGKAGLFSQEQYERF [N24F] it was 3.8; in that of YGETDFHKQDGKAGLFSQEQYERH [N24H], 3.88.
Still for that read-out and setting: in the case of YGETDFHKQDGKAGLFSQEQYERC [N24C] it was 3.98; in that of YGETDFHKQDGKAGLFSQEQYERV [N24V], 3.67.
Still for that read-out and setting: in the case of YGETDFHKQDGKAGLFSQEQYERT [N24T] it was 3.89.
Turning to YGETDFHKQDGKAGLFSQEQYERW [N24W], the protein stability index was determined as 3.99.
As for YGETDFHKQDGKAGLFSQEQYERP [N24P], the protein stability index worked out at 3.25.
For YGETDFHKQDGKAGLFSQEQYERE [N24E], the protein stability index was 4.54.
In the case of YGETDFHKQDGKAGLFSQEQYERL [N24L], the protein stability index was 4.16.
On the same count and under the same terms, in the case of YGETDFHKQDGKAGLFSQEQYEYN [R23Y] it was 4.02; in that of YGETDFHKQDGKAGLFSQEQYENN [R23N], 4.16; in that of YGETDFHKQDGKAGLFSQEQYESN [R23S], 4.37.
Turning to YGETDFHKQDGKAGLFSQEQYEEN [R23E], the protein stability index was found to be 4.7.
The same measure, in the same setting: the value for YGETDFHKQDGKAGLFSQEQYEPN [R23P] was 4.21; that for YGETDFHKQDGKAGLFSQEQYEVN [R23V] was 3.67; that for YGETDFHKQDGKAGLFSQEQYEGN [R23G] was 4.58.
Still for that read-out and setting: in the case of YGETDFHKQDGKAGLFSQEQYEKN [R23K] it was 4.37.
Take YGETDFHKQDGKAGLFSQEQYEWN [R23W]: the protein stability index came to 4.13.
As for YGETDFHKQDGKAGLFSQEQYEQN [R23Q], the protein stability index came out at 4.3.
YGETDFHKQDGKAGLFSQEQYEFN [R23F]: the protein stability index was 4.04.
Still for that read-out and setting: the value for YGETDFHKQDGKAGLFSQEQYEMN [R23M] was 4.17; that for YGETDFHKQDGKAGLFSQEQYEIN [R23I] was 4.11; that for YGETDFHKQDGKAGLFSQEQYELN [R23L] was 4.
The same measure, in the same setting: the value for YGETDFHKQDGKAGLFSQEQYEHN [R23H] was 4.3; that for YGETDFHKQDGKAGLFSQEQYEDN [R23D] was 4.9; that for YGETDFHKQDGKAGLFSQEQYETN [R23T] was 4.62.

Variants of B2 are the subject of another data set. Described as above. Conditions: c terminus: a fixed tail appended.
Regarding DMRDPTYRPLKQELQGLDYCKPDR [T23D], the protein stability index turned out to be 2.87.
For DMRDPTYRPLKQELQGLDYCKPRR [T23R], the protein stability index is 4.3.
With DMRDPTYRPLKQELQGLDYCKPIR [T23I], the protein stability index came out at 2.52.
As to DMRDPTYRPLKQELQGLDYCKPYR [T23Y], the protein stability index worked out at 2.5.
With DMRDPTYRPLKQELQGLDYCKPAR [T23A], the protein stability index amounted to 3.18.
Still for that read-out and setting: in the case of DMRDPTYRPLKQELQGLDYCKPHR [T23H] it was 3.19; in that of DMRDPTYRPMKQELQGLDYCKPTR [L10M], 3.25.
Still for that read-out and setting: the value for DMRDPTYRPNKQELQGLDYCKPTR [L10N] was 3.16; that for DMRDPTYRPWKQELQGLDYCKPTR [L10W] was 3.24; that for DMRDPTYRPAKQELQGLDYCKPTR [L10A] was 3.54.
Same read-out and setting: the value for DMRDPTYRPVKQELQGLDYCKPTR [L10V] was 3.14.
Consider DMRDPTYRPLKQELQGLTYCKPTR [D18T], for which the protein stability index is 3.66.
On to DMRDPTYRPLKQELQGLRYCKPTR [D18R], for which the protein stability index was determined as 3.97.
For the variant DMRDPTYRPLKQELQGLVYCKPTR [D18V], the protein stability index was 3.58.
Same read-out and setting: in the case of DMRDPTYRPLKQELQGLMYCKPTR [D18M] it was 2.94; in that of DMRDPTYRPLKQELQGLPYCKPTR [D18P], 3.63.
On to DMRDPTYRPLKQELIGLDYCKPTR [Q15I], for which the protein stability index came out at 3.05.
In the case of DMRDPTYRPLKQELVGLDYCKPTR [Q15V], the protein stability index turned out to be 2.73.
The same measure, in the same setting: in the case of DMRDPTYRPLKQELTGLDYCKPTR [Q15T] it was 3.55; in that of DMRDPTYRPLKQELCGLDYCKPTR [Q15C], 2.57.
Consider DMRDPTYRPLKQELRGLDYCKPTR [Q15R], for which the protein stability index came to 3.54.
With DMRDPTYRPLKQELWGLDYCKPTR [Q15W], the protein stability index came to 2.53.
Still for that read-out and setting: the value for DMRDPTYRPLKQELEGLDYCKPTR [Q15E] was 3.87; that for DMRDPTYRPLKQELGGLDYCKPTR [Q15G] was 2.25.
As to DMRTPTYRPLKQELQGLDYCKPTR [D4T], the protein stability index is 2.8.
DMREPTYRPLKQELQGLDYCKPTR [D4E]: the protein stability index was determined as 3.24.
On the same count and under the same terms, in the case of DMRYPTYRPLKQELQGLDYCKPTR [D4Y] it was 2.83; in that of DMRQPTYRPLKQELQGLDYCKPTR [D4Q], 3.6.
For the variant DMRSPTYRPLKQELQGLDYCKPTR [D4S], the protein stability index worked out at 2.61.
Consider DMRCPTYRPLKQELQGLDYCKPTR [D4C], for which the protein stability index was 2.96.
On the same count and under the same terms, the value for DMRGPTYRPLKQELQGLDYCKPTR [D4G] was 2.97; that for DMRFPTYRPLKQELQGLDYCKPTR [D4F] was 3.47; that for DMRDPTYRPLKQELQGLDYCKYTR [P22Y] was 3.13.
Still for that read-out and setting: the value for DMRDPTYRPLKQELQGLDYCKSTR [P22S] was 3.68.
On the same count and under the same terms, in the case of DMRDPTYRPLKQELQGLDYCKMTR [P22M] it was 3.07.
For DMRDPTYRPLKQELQGLDYCKKTR [P22K], the protein stability index was 4.35.
Still for that read-out and setting: in the case of DMRDPTYRPLKQELQGLDYCKPTG [R24G] it was 3.85; in that of DMRDPTYRPLKQELQGLDYCKPTN [R24N], 4.03; in that of DMRDPTYRPLKQELQGLDYCKPTW [R24W], 1.93.
DMRDPTYRPLKQELQGLDYCKPTA [R24A]: the protein stability index worked out at 2.32.
As to DMRDPTYRPLKQELQGLDYCKPTV [R24V], the protein stability index is 1.92.
On the same count and under the same terms, in the case of DMRDPTYRPLKQELQGLDYCKPTF [R24F] it was 2.41; in that of DMRDPTYRPLKQELQGLDYCKPTP [R24P], 4.29; in that of DMRDPTYRPLKQELQGLDYCTPTR [K21T], 2.63.
Take DMRDPTYRPLKQELQGLDYCDPTR [K21D]: the protein stability index amounted to 1.74.
Consider DMRDPTYRPLKQELQGLDYCIPTR [K21I], for which the protein stability index is 1.87.
Still for that read-out and setting: the value for DMRDPTYRPLKQELQGLDYCLPTR [K21L] was 3.38; that for DMRDPTYRPLKQELQMLDYCKPTR [G16M] was 3.35.
For the variant DMRDPTYRPLKQELQILDYCKPTR [G16I], the protein stability index was 2.17.
In the case of DMRDPTYRPLKQELQHLDYCKPTR [G16H], the protein stability index was determined as 3.1.
Turning to DMRDPTYRPLKQELQVLDYCKPTR [G16V], the protein stability index was 2.71.
Same read-out and setting: in the case of DMRDPTYRPLKQELQRLDYCKPTR [G16R] it was 3.78.
Same read-out and setting: the value for DMRDPTYRPLKQELQTLDYCKPTR [G16T] was 3.36; that for DMRDPTYRPLKQELQWLDYCKPTR [G16W] was 3.12.
In the case of DMRDPIYRPLKQELQGLDYCKPTR [T6I], the protein stability index came out at 3.63.
For DMRDPGYRPLKQELQGLDYCKPTR [T6G], the protein stability index was 3.93.
On to DMRDPEYRPLKQELQGLDYCKPTR [T6E], for which the protein stability index is 3.51.
As to DMRDPMYRPLKQELQGLDYCKPTR [T6M], the protein stability index stood at 2.92.
Same read-out and setting: in the case of DMRDITYRPLKQELQGLDYCKPTR [P5I] it was 2.63.

The values are drawn from the supplement of paper PMC10567573.
